Test results taken from IntAct's records for PubMed 27478939.

B1: Purine nucleoside phosphorylase LACC1 (Homo sapiens), Q8IV20 (parent)
chain: MAEAVLIDLFGLKLNSQKNCHQTLLKTLNAVQYHHAAKAKFLCIMCCSNISYERDGEQDNCEIETSNGLSALLEEFEIVSCPSMAATLYTIKQKIDEKNLSSIKVIVPRHRKTLMKAFIDQLFTDVYNFEFEDLQVTFRGGLFKQSIEINVITAQELRGIQNEIETFLRSLPALRGKLTIITSSLIPDIFIHGFTTRTGGISYIPTLSSFNLFSSSKRRDPKVVVQENLRRLANAAGFNVEKFYRIKTHHSNDIWIMGRKEPDSYDGITTNQRGVTIAALGADCIPIVFADPVKKACGVAHAGWKGTLLGVAMATVNAMIAEYGCSLEDIVVVLGPSVGPCCFTLPRESAEAFHNLHPACVQLFDSPNPCIDIRKATRILLEQGGILPQNIQDQNQDLNLCTSCHPDKFFSHVRDGLNFGTQIGFISIKE

Variants of: B1
Details: with fas_human FASN

Row | effect of a mutation on the interaction | Variant
1 | with no effect | I254V
